From patent publication US20240216536

Assays:
[1] = target: T1, His-S5A substrate (E6AP Ubiquitin Ligase Kit-S5a Substrate, Boston Biochem #K-230), P55036
T1 chain: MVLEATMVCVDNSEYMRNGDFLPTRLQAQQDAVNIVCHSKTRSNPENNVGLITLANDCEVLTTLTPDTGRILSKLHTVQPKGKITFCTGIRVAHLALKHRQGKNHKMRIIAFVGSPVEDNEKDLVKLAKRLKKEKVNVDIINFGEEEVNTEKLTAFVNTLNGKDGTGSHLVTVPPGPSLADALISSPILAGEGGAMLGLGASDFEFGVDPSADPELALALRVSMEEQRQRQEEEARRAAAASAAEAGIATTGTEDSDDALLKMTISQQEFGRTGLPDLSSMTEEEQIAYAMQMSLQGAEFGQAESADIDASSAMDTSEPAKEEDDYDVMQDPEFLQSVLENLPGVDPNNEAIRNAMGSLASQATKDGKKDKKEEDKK

B1: rat UBE3A protein (endogenous, from wild type rat cerebrospinal fluid and hippocampal dialysate) (protein)
chain: MATACKRSSGESQSEDIEASRMKRAAAKHLIERYYHQLTEGCGNEACTNEFCASCPTFLRMDNNAAAIKALELYKINAKLCDPHPSKKGASSAYLENSKGASNNSEIKMNKKEEFKEVDYLTEEKVYEIYEFCREREDYSPLIRVIGRIFSSAEALVQSFRKVKQHTKEELKSLQEKDEDKDEDEKEKAACSAAAMEEDSEASSSRMGDSSQGDNNVQKLGPDDVTVDIDAIRRVYSSLLSDEKIETAFLNALVYLSPNVECDLTYHNVYTRDPNYLNLFIIVMENRNLHSPEYLEMALPLFCKAMSKLPLAAQGKLIRLWSKYSADQIRRMMETFQQLITYKVISNEFNSRNLVNDDDAIVAASKCLKMVYYANVVGGDVDTNHNEEDDEEPIPESSELTLQELLGEERRNKKGPRVDPLETEIGVKTLDCRKPLISFEEFINEPLNDVLEMDKDYTFFKVETENKFSFMTCPFILNAVTKNLGLYYDNRIRMYSERRITVLYSLVQGQQLNPYLRLKVRRDHIIDDALVRLEMIAMENPADLKKQLYVEFEGEQGVDEGGVSKEFFQLVVEEIFNPDIGMFTYDEATRLFWFNPSSFETEGQFTLIGIVLGLAIYNNCILDVHFPMVVYRKLMGKKGTFCDLGDSHPILYQSLKDLLEYEGNVEDDMMITFQISQTDLFGNPMMYDLKENGDKIPITNENRKEFVSLYSDYILNKSVEKQFKAFRRGFHMVTNESPLKYLFRPEEIELLICGSRNLDFQALEETTEYDGGYTRESVVIREFWEIVHSFTDEQKRLFLQFTTGTDRAPVGGLGKLKMIIAKNGPDTERLPTSHTCFNVLLLPEYSSKEKLKERLLKAITYAKGFGML
For B1, the “ubiquitination assay western blot (S5A band shift over time)” value [1] was “the UBE3A protein present in both the CSF and hippocampal dialysate were active in ubiquitinating both the S5A substrate and UBE3A”, the “ubiquitination assay western blot after immuno-depletion of UBE3A (S5A band intensity)” value [1] was “With UBE3A protein immuno-precipitated, UBE3A protein was not detected and the S5A band intensity remained unchanged over time” and the “ubiquitination assay western blot (self-ubiquitination of UBE3A)” value was “the UBE3A protein present in both the CSF and hippocampal dialysate were active in ubiquitinating both the S5A substrate and UBE3A”.
